Experimental data published in paper PMC8599813, “Investigating molecular mechanisms of 2A-stimulated ribosomal pausing and frameshifting in Theilovirus”.

Columns and labels:
[1] = target: Theiler's murine encephalomyelitis virus (TMEV) 2A protein (Theiler's murine encephalomyelitis virus (TMEV)); assay: SEC-MALS; Superdex 75 increase 10/300 GL, 20 mM Tris (HCl) pH 7.5, 1.0 M NaCl, 25°C; 100 µl injected at 3.1, 0.8 and 0.38 mg/ml (200, 51.5 and 24.5 µM); Figure 1B at 3.1 mg/ml; monomer and trimer peaks
TMEV 2A [2] = target: T1, TMEV 2A (Theiler's murine encephalomyelitis …, UniProt P08545 923-1055); assay: EMSA; EMSA: 10 mM Tris pH 7.4, ~140 mM NaCl, 2 mM Mg acetate, 1 mM DTT, 5% glycerol, tRNA, 50 nM RNA, 37 C 20 min; MST: buffer stated as 1x of 20 mM Tris pH 7.4/80 mM NaCl/4 mM Mg acetate/2 mM DTT (2x), ~140 mM NaCl final, 5 nM RNA, 25 C; ITC: 50 mM Tris pH 7.4, 400 mM NaCl, 25 C; conditions: protein: recombinant, tags: GST cleaved (3C protease), N-terminal GPLGS remnant, label: 5' Cy5
T1 sequence: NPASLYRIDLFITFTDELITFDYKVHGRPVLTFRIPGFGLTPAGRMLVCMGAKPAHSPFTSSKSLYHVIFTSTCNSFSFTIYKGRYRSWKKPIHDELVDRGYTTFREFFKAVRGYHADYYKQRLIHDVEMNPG

TMEV 2A [3] = target: T1, TMEV 2A; assay: MST; ~140 mM NaCl; EMSA: 10 mM Tris pH 7.4, ~140 mM NaCl, 2 mM Mg acetate, 1 mM DTT, 5% glycerol, tRNA, 50 nM RNA, 37 C 20 min; MST: buffer stated as 1x of 20 mM Tris pH 7.4/80 mM NaCl/4 mM Mg acetate/2 mM DTT (2x), ~140 mM NaCl final, 5 nM RNA, 25 C; ITC: 50 mM Tris pH 7.4, 400 mM NaCl, 25 C; conditions: protein: recombinant, tags: GST cleaved (3C protease), N-terminal GPLGS remnant, label: 5' Cy5 (EMSA, MST); for Kd: stem-loop/pseudoknot-like
TMEV 2A [4] = target: T1, TMEV 2A; assay: EMSA; ~140 mM NaCl, tRNA; EMSA: 10 mM Tris pH 7.4, ~140 mM NaCl, 2 mM Mg acetate, 1 mM DTT, 5% glycerol, tRNA, 50 nM RNA, 37 C 20 min; MST: buffer stated as 1x of 20 mM Tris pH 7.4/80 mM NaCl/4 mM Mg acetate/2 mM DTT (2x), ~140 mM NaCl final, 5 nM RNA, 25 C; ITC: 50 mM Tris pH 7.4, 400 mM NaCl, 25 C; conditions: protein: recombinant; tags: GST cleaved (3C protease); N-terminal GPLGS remnant; label: 5' Cy5 (EMSA, MST); hairpin, 7 bp stem
TMEV 2A [5] = target: T1, TMEV 2A; assay: ITC; 400 mM NaCl; ~1:1 stoichiometry; EMSA: 10 mM Tris pH 7.4, ~140 mM NaCl, 2 mM Mg acetate, 1 mM DTT, 5% glycerol, tRNA, 50 nM RNA, 37 C 20 min; MST: buffer stated as 1x of 20 mM Tris pH 7.4/80 mM NaCl/4 mM Mg acetate/2 mM DTT (2x), ~140 mM NaCl final, 5 nM RNA, 25 C; ITC: 50 mM Tris pH 7.4, 400 mM NaCl, 25 C; conditions: protein: recombinant; tags: GST cleaved (3C protease); N-terminal GPLGS remnant; label: 5' Cy5 (EMSA, MST); none (ITC, SEC-MALS); stem-loop/pseudoknot-like

Theiler's murine encephalomyelitis virus (TMEV) 2A protein (natural protein)
stoichiometry N [1]: 3

B1: TMEV 9 (structured_RNA)
RNA: CAAGGUGCGGUGCUAACUAAAUCCCUAGCACCCC
binding result (TMEV 2A [2]; pseudoknot-like, G17-C38 pair): binds

B2: TMEV 9 G17C (structured_RNA)
RNA: CAACGUGCGGUGCUAACUAAAUCCCUAGCACCCC
binding result (TMEV 2A [2]; stem-loop): no binding

B3: TMEV 9 G17C+C38G (structured_RNA)
RNA: CAACGUGCGGUGCUAACUAAAUCCGUAGCACCCC
binding result (TMEV 2A [2]; compensatory pair 17-38): no binding

B4: TMEV 3 (structured_RNA)
RNA: GGGUUUUUCAGCCACAAGGUGCGGUGCUAACUAAAUCCCUAGCACCCC
Kd (TMEV 2A [3]): 495 ± 110 nM

B5: TMEV 8 (structured_RNA)
RNA: ACAAGGUGCGGUGCUAACUAAAUCCCUAGCACCCC
binding result (TMEV 2A [2]; stem-loop/pseudoknot-like): binds

B6: TMEV 4 (structured_RNA)
RNA: GCGGUGCUAACUAAAUCCCUAGCACCCC
binding result (TMEV 2A [4]): no binding

B7: TMEV 6 (structured_RNA)
RNA: CCACAAGGUGCGGUGCUAACUAAAUCCCUAGCACCCC
Kd (TMEV 2A [5]): 67 ± 7 nM
Kd (TMEV 2A [3]; none (ITC, SEC-MALS)): 280 ± 40 nM

B8: TMEV 7 (structured_RNA)
RNA: CACAAGGUGCGGUGCUAACUAAAUCCCUAGCACCCC
binding result (TMEV 2A [2]; stem-loop/pseudoknot-like): binds

B9: TMEV 1 (structured_RNA)
RNA: CCACAAGGUGCGGUGCUAACUAAAUCCCUAGCACCCCAGGCAGGAA
Kd (TMEV 2A [3]): 484 ± 90 nM

B10: TMEV 1 G17C+C38G (structured_RNA)
RNA: CCACAACGUGCGGUGCUAACUAAAUCCGUAGCACCCCAGGCAGGAA
binding result (TMEV 2A [2]; compensatory pair 17-38): no binding

B11: TMEV 2 (structured_RNA)
RNA: GCGGUGCUAACUAAAUCCCUAGCACCCCAGGCAGGAA
binding result (TMEV 2A [3]; hairpin): no binding

B12: TMEV 12 (structured_RNA)
RNA: GGUGCGGUGCUAACUAAAUCCCUAGCACCCC
binding result (TMEV 2A [2]; stem-loop): no binding
